From publication PMC8948245, “Mechanistic insights into the regulation of plant phosphate homeostasis by the rice SPX2 – PHR2 complex” (Nature Communications, 2022)

Key:
[1] = target: the molecule itself; assay: cross-linking; about 30 μM purified SPX2/PHR2^225–362 complex with 200 μM M2M, room temperature, 30 min, 25 mM Tris–HCl pH 8.0, 150 mM NaCl, 1 mM InsP6; SDS-PAGE with or without 100 mM DTT
[2] = target: the molecule itself; assay: cross-linking; mixture of PHR2^225–362-His complexes with SPX2-flag homodimer and SPX2/SPX2-flag heterodimer from the tandem pull-down; about 30 μM with 200 μM M2M, room temperature, 30 min; SDS-PAGE with or without 100 mM DTT
[3] = target: PHR2 MYB domain (crystal) (Oryza sativa, UniProt B8B5N8 180-313); assay: X-ray crystallography, 2.7 A; EMSA: 10 nM FAM-DNA, 0.3375-0.8 uM PHR2, 25 mM Tris-HCl pH 8.0, 150 mM NaCl, 5 mM DTT, 10% glycerol, 200 ng/ml heparin, 4 C, 30 min; crystal: 13% PEG 3350, 0.1; conditions: protein: recombinant; tags: C-terminal 8xHis (general PHR2 cloning); chain copies: 2; 5' overhang 1 nt on each strand, 15 bp
Sequence of PHR2 MYB domain (crystal) (B8B5N8 180-313): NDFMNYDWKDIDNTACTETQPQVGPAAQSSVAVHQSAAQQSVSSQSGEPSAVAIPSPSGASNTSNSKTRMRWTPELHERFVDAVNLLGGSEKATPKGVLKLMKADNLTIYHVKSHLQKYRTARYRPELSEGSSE

PHR2 MYB-CC K292D = PHR2 MYB-CC K292D (Oryza sativa, UniProt B8B5N8 225-362, K292D); assay: EMSA; EMSA: 10 nM FAM-DNA, 0.3375-0.8 uM PHR2, 25 mM Tris-HCl pH 8.0, 150 mM NaCl, 5 mM DTT, 10% glycerol, 200 ng/ml heparin, 4 C, 30 min; crystal: 13% PEG 3350, 0.1; conditions: protein: recombinant; tags: C-terminal 8xHis; chain copies: 2; blunt, 30 bp
Sequence of PHR2 MYB-CC K292D (B8B5N8 225-362 K292D): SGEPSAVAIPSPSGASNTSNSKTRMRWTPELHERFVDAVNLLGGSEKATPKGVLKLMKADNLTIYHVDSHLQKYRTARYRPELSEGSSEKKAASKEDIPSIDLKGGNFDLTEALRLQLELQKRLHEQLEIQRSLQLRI

B1: SPX2^1-280_K106C (natural protein, rice (Oryza sativa), UniProt Q6Z784 1-280, looked up)
chain: MKFGKSLSSQIVEMQPEWRDNFLSYKDLKKRLNLISGGAAGERASKRRRVGGATAVTVTAAAAGGMTLEQAGFVGLLDAELDKFNFFFLEKEEEYVIKQKELRERCMASAEEVMRVRKEIVDLHGEMVLLENYSALNYTGLVKILKKYDKRTGSMIRLPFVQKVLQQPFFTTDLLYKLVKECEEMLDQLMPTNEHSVASEDGKDDSEGEEKGSKPSSSSSANGGAVPGEAEAEDERSTDMKSTVTAALRALREIRSGSSTVSVFSLPPLHGSNGQDEPGR
notes: rice (Oryza sativa) SPX2, residues 1-280, K106C; also called SPX2^K106C
binding result [1]: binds

B2: SPX2^K106C-flag (natural protein, rice (Oryza sativa), UniProt Q6Z784 1-280, looked up)
chain: MKFGKSLSSQIVEMQPEWRDNFLSYKDLKKRLNLISGGAAGERASKRRRVGGATAVTVTAAAAGGMTLEQAGFVGLLDAELDKFNFFFLEKEEEYVIKQKELRERCMASAEEVMRVRKEIVDLHGEMVLLENYSALNYTGLVKILKKYDKRTGSMIRLPFVQKVLQQPFFTTDLLYKLVKECEEMLDQLMPTNEHSVASEDGKDDSEGEEKGSKPSSSSSANGGAVPGEAEAEDERSTDMKSTVTAALRALREIRSGSSTVSVFSLPPLHGSNGQDEPGR
notes: rice (Oryza sativa) SPX2, residues 1-280, K106C; source: Ni-NTA pull-down and flag pull-down in tandem; not shown: 3×flag, N-terminal, kept
binding result [2]: binds

B3: P1BS crystal DNA (dsDNA)
DNA 1: GCTTGAGGATATCCGA
DNA 2: CTCGGATATCCTCAAG
binding result [3]: binds

B4: FAM P1BS EMSA probe (dsDNA)
DNA 1: AAGCTTGAATATGCAATGGAATATGCTTAG
DNA 2: CTAAGCATATTCCATTGCATATTCAAGCTT
binding result (PHR2 MYB-CC K292D): no binding
